According to the supplement of paper PMC7877785:
± gives the uncertainty stated by the source.

Assay: self-splicing fitness, log relative to wild type (ln ratio); higher = more splicing; Tetrahymena group I intron in knt gene, E. coli kanamycin selection, DiMSum; sequences stand for … in CUCUCU…GGAGGGAAAAGUUAUCAGGCAUGCACCUGGUAGCUAGUCUUUAAACCAAUAGAUUGCAUCGGUUUAAAAGGCAAGACCGUCAAAUUGCGGGAAAGGGGUCAACAGCCGUUCAGUACCAAGUCUCAGGGGAAACUUUGAGAUGGCCUUGCAAAGGGUAUGGUAAUAAGCUGACGGACAUGGUCCUAACCACGCAGCCAAGUCCUAAGUCAACAGAUCUUCUGUUGAUAUGGAUGCAGUUCACAGACUAAAUGUCGGUCGGGGAAGAUGUAUUCUUCUCAUAAGAUAUAGUCGGACCUCUCCUUAAUGGGAGCUAGCGGAUGAAGUGAUGCAACACUGGAGCCGCUGGGAACUAAUUUGUAUGCGAAAGUAUAUUGAUUAGUUUUGGAGUACUCGUGGUCG
Procedure, shortened: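 Pooled colonies went to amplicon sequencing on an Illumina HiSeq 2500 after six replicate transformations. The plates were LB agar with 100 μg/mL carbenicillin, 50 μM IPTG and 0.2% rhamnose, with or without 25 μg/mL kanamycin, incubated overnight at 37°C or 30°C. The E. coli BL21(DE3) library had all eight P1ex-region intron nucleotides randomised, the intron placed in the knt kanamycin-resistance gene on pET-22b(+). DiMSum fitness is the error-weighted combination of replicate fold changes, kanamycin against none, normalised to wild type.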

| Sequence | self-splicing fitness (ln) (30 °C) | self-splicing fitness (ln) (37 °C) |
| --- | --- | --- |
| CGCGAGCAAUAUUACGGCGC | -2.93 ± 0.23 | -2.88 ± 0.31 |
| GGACAGCAAUAUUACGGCAG | -3.87 ± 0.14 | -2.45 ± 0.1 |
| GCAGAGCAAUAUUACGAUCG |  | -1.33 ± 0.34 |
| AUAAAGCAAUAUUACGUGUU | -2.97 ± 0.071 | -1.11 ± 0.068 |
| GCCUAGCAAUAUUACGAUGG | -3.13 ± 0.21 | -2.05 ± 0.21 |
| GUAAAGCAAUAUUACGUCCG | -0.907 ± 0.088 | -0.395 ± 0.14 |
| GACUAGCAAUAUUACGGAGA | -3.49 ± 0.23 | -2.04 ± 0.19 |
| ACGUAGCAAUAUUACGUUUG | -3.46 ± 0.17 | -2.95 ± 0.18 |
| CCGCAGCAAUAUUACGGAAU | -4.02 ± 0.25 | -2.89 ± 0.34 |
| CCGCAGCAAUAUUACGUCUG | -3.34 ± 0.17 | -3.13 ± 0.18 |
| CAGAAGCAAUAUUACGGAGC | -3.14 ± 0.34 | -2.32 ± 0.31 |
| AUCCAGCAAUAUUACGGCAA | -0.324 ± 0.1 | -0.263 ± 0.12 |
| AAGUAGCAAUAUUACGUCCG | -1.53 ± 0.14 | -1.93 ± 0.14 |
| ACCCAGCAAUAUUACGUCUA | -1.41 ± 0.093 | -0.988 ± 0.09 |
| GCCGAGCAAUAUUACGUGGU | -3.39 ± 0.14 | -2.47 ± 0.16 |
| UACUAGCAAUAUUACGCGCG | -0.375 ± 0.12 | -0.0222 ± 0.12 |
| AACCAGCAAUAUUACGUCUU | 0.0745 ± 0.044 | 0.393 ± 0.063 |
| AGGGAGCAAUAUUACGACUC | -1.2 ± 0.48 | -1.92 ± 0.48 |
| UGACAGCAAUAUUACGUACU | -0.423 ± 0.064 | 0.165 ± 0.085 |
| CCAAAGCAAUAUUACGUAGA | -3.5 ± 0.17 | -2.55 ± 0.18 |
| UUCUAGCAAUAUUACGUACA | -1.39 ± 0.19 | -0.376 ± 0.22 |
| GCAAAGCAAUAUUACGGACU | -0.621 ± 0.047 | 0.0957 ± 0.075 |
| CCCGAGCAAUAUUACGUCUU | -3.38 ± 0.18 | -2.16 ± 0.19 |
| UGCAAGCAAUAUUACGACAG | -0.739 ± 0.066 | -0.13 ± 0.092 |
| GGCCAGCAAUAUUACGAUAG | -3.68 ± 0.46 | -2.95 ± 0.23 |
| GCACAGCAAUAUUACGUAAA | -0.808 ± 0.057 | 0.219 ± 0.077 |

| Sequence | self-splicing fitness (ln) (30 °C) | self-splicing fitness (ln) (37 °C) |
| --- | --- | --- |
| CACAAGCAAUAUUACGAUGU | -3.96 ± 0.16 | -1.99 ± 0.1 |
| AUCGAGCAAUAUUACGACUC | -3.4 ± 0.3 | -1.98 ± 0.27 |
| GAUCAGCAAUAUUACGAUUG | -0.607 ± 0.079 | -0.237 ± 0.11 |
| AACCAGCAAUAUUACGCAAC | -2.78 ± 0.13 | -0.698 ± 0.11 |
| CGACAGCAAUAUUACGCUAU | -3.71 ± 0.23 | -2.04 ± 0.14 |
| CUGUAGCAAUAUUACGAUUA | -2.74 ± 0.33 | -1.24 ± 0.4 |
| AAUUAGCAAUAUUACGAGGA | -2.64 ± 0.26 | -0.851 ± 0.18 |
| ACUCAGCAAUAUUACGUAGC | -1.24 ± 0.069 | -0.786 ± 0.11 |
| CUGAAGCAAUAUUACGUGUC | -2.53 ± 0.14 | -2.81 ± 0.28 |
| ACUGAGCAAUAUUACGAAAC | -4.21 ± 0.42 | -1.42 ± 0.38 |
| ACGCAGCAAUAUUACGUAGA | -2.99 ± 0.16 | -2.53 ± 0.21 |
| UUUGAGCAAUAUUACGACCU | -2.7 ± 0.26 | -1.02 ± 0.34 |
| GGUCAGCAAUAUUACGUGAA | -0.356 ± 0.086 | 0.381 ± 0.096 |
| AAGGAGCAAUAUUACGAAUG | -2.39 ± 0.22 |  |
| UAUGAGCAAUAUUACGUGGC | -3.07 ± 0.2 | -2.52 ± 0.46 |
| UGCUAGCAAUAUUACGUUUU | -3.29 ± 0.18 | -1.94 ± 0.14 |
| GGAAAGCAAUAUUACGAAGC | -1.07 ± 0.34 | -1.43 ± 0.34 |
| GGCGAGCAAUAUUACGACGA | -3.06 ± 0.32 | -1.32 ± 0.26 |
| AGGCAGCAAUAUUACGGUCG | -0.147 ± 0.079 | -0.266 ± 0.1 |
| CGCUAGCAAUAUUACGCAUA | -3.26 ± 0.21 | -2.36 ± 0.21 |
| GGCGAGCAAUAUUACGUACU | -0.65 ± 0.13 | -0.094 ± 0.15 |
| CUUAAGCAAUAUUACGAGGG | -2.95 ± 0.21 | -2.85 ± 0.29 |
| CGGAAGCAAUAUUACGAGUU | -3.29 ± 0.2 | -2.49 ± 0.2 |
| CUCAAGCAAUAUUACGGUUU | -2.38 ± 0.1 | -2.36 ± 0.14 |
| CCUGAGCAAUAUUACGUUAG | -3.86 ± 0.17 | -2.29 ± 0.12 |
| AUACAGCAAUAUUACGCUGG | -2.29 ± 0.13 | -2.76 ± 0.25 |

| Sequence | self-splicing fitness (ln) (30 °C) | self-splicing fitness (ln) (37 °C) |
| --- | --- | --- |
| UCUCAGCAAUAUUACGCCCU | -2.5 ± 0.35 | -2 ± 0.44 |
| AUUGAGCAAUAUUACGAAGU | -1.71 ± 0.29 | -1.72 ± 0.42 |
| UAGCAGCAAUAUUACGUCAC | -4.49 ± 0.42 | -2.46 ± 0.33 |
| GGCAAGCAAUAUUACGAGGU | -2.6 ± 0.24 | -1.27 ± 0.21 |
| GGCCAGCAAUAUUACGCGAU | -3.5 ± 0.14 | -2.17 ± 0.14 |
| AGCUAGCAAUAUUACGCACA | -1.51 ± 0.21 | -0.817 ± 0.2 |
| UCGGAGCAAUAUUACGGUCA | -0.984 ± 0.18 |  |
| CAGCAGCAAUAUUACGGACG | -0.284 ± 0.069 | -0.581 ± 0.081 |
| GCACAGCAAUAUUACGCACA | -1.09 ± 0.092 | -0.164 ± 0.1 |
| AUCCAGCAAUAUUACGCUAG | -2.76 ± 0.11 | -1.11 ± 0.12 |
| CACUAGCAAUAUUACGCCGU | -1.95 ± 0.35 | -1.18 ± 0.35 |
| UGGAAGCAAUAUUACGCUCA | -0.562 ± 0.11 | -0.00417 ± 0.13 |
| ACCAAGCAAUAUUACGAUUC | -1.48 ± 0.1 | -1.04 ± 0.14 |
| GUGUAGCAAUAUUACGUCUG | -1.08 ± 0.17 | -1.74 ± 0.27 |
| CAUUAGCAAUAUUACGACGA | -2.25 ± 0.28 | -1.6 ± 0.2 |
| CACGAGCAAUAUUACGGCGG | -2.37 ± 0.092 | -1.14 ± 0.11 |
| UGACAGCAAUAUUACGGUAC | -4.6 ± 0.36 | -2.85 ± 0.38 |
| CUGGAGCAAUAUUACGCGUA |  | -2.81 ± 0.43 |
| ACGCAGCAAUAUUACGUUAU | -3.13 ± 0.12 | -2.12 ± 0.15 |
| GGAUAGCAAUAUUACGCAAA | -2.14 ± 0.29 |  |
| UAAUAGCAAUAUUACGCGAA | -3.51 ± 0.24 | -0.873 ± 0.14 |
| GCGUAGCAAUAUUACGCGAU | -2.83 ± 0.26 | -2.31 ± 0.26 |
| CUCAAGCAAUAUUACGUGCU | -4.3 ± 0.24 | -2.73 ± 0.17 |
| GAGCAGCAAUAUUACGAAAG | -3.71 ± 0.33 | -1.93 ± 0.22 |
| AAUCAGCAAUAUUACGGGAA | -1.37 ± 0.097 | 0.137 ± 0.078 |
